In patent US20230203157A1 (published 2023):

T1: mouse PD-1 (mouse, UniProt Q02242 25-288)
T1 sequence (looked up): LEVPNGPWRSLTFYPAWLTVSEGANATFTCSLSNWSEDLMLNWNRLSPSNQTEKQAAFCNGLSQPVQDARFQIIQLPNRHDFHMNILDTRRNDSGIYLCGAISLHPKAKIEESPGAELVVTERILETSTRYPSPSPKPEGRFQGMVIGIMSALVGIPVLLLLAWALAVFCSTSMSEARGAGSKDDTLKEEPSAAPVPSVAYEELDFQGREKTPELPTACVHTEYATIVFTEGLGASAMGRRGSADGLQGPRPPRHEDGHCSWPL


Target: T1, mouse PD-1
Assay: cell-based or functional assay

Row | proliferation by CFSE dilution; BALB/c CD8 T cells with allogeneic C57B6 BMDDC, 0.5 micromolar, 84 h [%] | proliferation by CFSE dilution; OT-I CD8 T cells with SIINFEKL-pulsed C57B6 BMDDC, 0.5 micromolar, 72 h [%] | CD69 expression; OT-I CD8 T cells with SIINFEKL-pulsed BMDDC, 0.5 micromolar, 57 h [%] | proliferation (CFSE dilution); OT-I CD8 T cells with SIINFEKL-pulsed BMDDC, 0.5 micromolar, 57 h [%] | Binder
1 | 63.6 | 43.9 |  |  | LoSTIM 7 (bispecific antibody, mouse IgG2a, kappa) heavy: DVALTQTPVAQPVTLGDQASISCRSSQSLVHSNGRTYLEWYLQKPGQSPQLLIYKVSNRFSGVPDRFIGSGSGSDFTLTISRVEPEDLGVYYCFQATHDPNTFGAGTKLELKGGGGSGGGGSGGGGSQVQLQQSGAELVKPGSSVKISCKASGYTFTSHFIHWIKQQPGNGLEWIGGIYPGDGDTEYNQQFNGKATLTADKSSSTAYMRLSSLTSEDSAVYFCATRVPSYWFFDFWGPGTMVTVSSGGGGAGGGGDVQLVESGGGLVQPGGSRKLSCAASGFTFSSFGMHWVRQAPEKGLEWVAYISSGSNTIYYADTVKGRFTISRDNPKNTLFLQMTSLRSEDTAMYYCALTTGSWFAYWGQGTLVTVSAAKTTAPSVYPLAPVCGDTTGSSVTLGCLVKGYFPEPVTLTWNSGSLSSGVHTFPAVLQSDLYTLSSSVTVTSSTWPSQSITCNVAHPASSTKVDKKIEPRGPTIKPCPPCKCPAPNLEGGPSVFIFPPKIKDVLMISLSPIVTCVVVDVSEDDPDVQISWFVNNVEVHTAQTQTHREDYNSTLRVVSALPIQHQDWMSGKAFACAVNNKDLPAPIERTISKPKGSVRAPQVYVLPPPEEEMTKKQVTLTCMVTDFMPEDIYVEWTNNGKTELNYKNTEPVLDSDGSYFMYSKLRVEKKNWVERNSYSCSVVHEGLHNHHTTKSFSRTPGK light: DILLTQSPAILSVRPGERVSFSCRASQSLGTSIHWYQQRTDGSPRLLIKYASESISGIPSRFSGSGSGTDFTLSINSVESEDIADYYCQQSNSWPITFGAGTKLELKRADAAPTVSIFPPSSEQLTSGGASVVCFLNNFYPKDINVKWKIDGSERQNGVLNSWTDQDSKDSTYSMSSTLTLTKDEYERHNSYTCEATHKTSTSPIVKSFNRNEC
2 | 69.1 | 78.4 |  |  | LoSTIM 8 (bispecific antibody, mouse IgG2a, kappa) heavy: DVQLVESGGGLVQPGGSRKLSCAASGFTFSSFGMHWVRQAPEKGLEWVAYISSGSNTIYYADTVKGRFTISRDNPKNTLFLQMTSLRSEDTAMYYCALTTGSWFAYWGQGTLVTVSAAKTTAPSVYPLAPVCGDTTGSSVTLGCLVKGYFPEPVTLTWNSGSLSSGVHTFPAVLQSDLYTLSSSVTVTSSTWPSQSITCNVAHPASSTKVDKKIEPRGPTIKPCPPCKCPAPNLEGGPSVFIFPPKIKDVLMISLSPIVTCVVVDVSEDDPDVQISWFVNNVEVHTAQTQTHREDYNSTLRVVSALPIQHQDWMSGKAFACAVNNKDLPAPIERTISKPKGSVRAPQVYVLPPPEEEMTKKQVTLTCMVTDFMPEDIYVEWTNNGKTELNYKNTEPVLDSDGSYFMYSKLRVEKKNWVERNSYSCSVVHEGLHNHHTTKSFSRTPGKGGGGAGGGGDVALTQTPVAQPVTLGDQASISCRSSQSLVHSNGRTYLEWYLQKPGQSPQLLIYKVSNRFSGVPDRFIGSGSGSDFTLTISRVEPEDLGVYYCFQATHDPNTFGAGTKLELKGGGGSGGGGSGGGGSQVQLQQSGAELVKPGSSVKISCKASGYTFTSHFIHWIKQQPGNGLEWIGGIYPGDGDTEYNQQFNGKATLTADKSSSTAYMRLSSLTSEDSAVYFCATRVPSYWFFDFWGPGTMVTVSS light: DILLTQSPAILSVRPGERVSFSCRASQSLGTSIHWYQQRTDGSPRLLIKYASESISGIPSRFSGSGSGTDFTLSINSVESEDIADYYCQQSNSWPITFGAGTKLELKRADAAPTVSIFPPSSEQLTSGGASVVCFLNNFYPKDINVKWKIDGSERQNGVLNSWTDQDSKDSTYSMSSTLTLTKDEYERHNSYTCEATHKTSTSPIVKSFNRNEC
3 |  |  | 61 | 90.1 | LoSTIM 3 (bispecific antibody, mouse IgG2a, kappa) heavy: DVALTQTPVAQPVTLGDQASISCRSSQSLVHSNGRTYLEWYLQKPGQSPQLLIYKVSNRFSGVPDRFIGSGSGSDFTLTISRVEPEDLGVYYCFQATHDPNTFGAGTKLELKGGGGSGGGGSGGGGSQVQLQQSGAELVKPGSSVKISCKASGYTFTSHFIHWIKQQPGNGLEWIGGIYPGDGDTEYNQQFNGKATLTADKSSSTAYMRLSSLTSEDSAVYFCATRVPSYWFFDFWGPGTMVTVSSGGGGAGGGGEVQVVETGGGLVQPGSSLKLSCESSGFTFSSTWMNWVRQAPGKGLEWVALVKDKYSNYEANYAESVKGRFIISRDDSKNRVYLQMNTLRDQDTATYHCTRSRGYKNWYFDFWGPGTMVTVSSAKTTAPSVYPLAPVCGDTTGSSVTLGCLVKGYFPEPVTLTWNSGSLSSGVHTFPAVLQSDLYTLSSSVTVTSSTWPSQSITCNVAHPASSTKVDKKIEPRGPTIKPCPPCKCPAPNLEGGPSVFIFPPKIKDVLMISLSPIVTCVVVDVSEDDPDVQISWFVNNVEVHTAQTQTHREDYNSTLRVVSALPIQHQDWMSGKAFACAVNNKDLPAPIERTISKPKGSVRAPQVYVLPPPEEEMTKKQVTLTCMVTDFMPEDIYVEWTNNGKTELNYKNTEPVLDSDGSYFMYSKLRVEKKNWVERNSYSCSVVHEGLHNHHTTKSFSRTPGK light: DIQMTQSPPSLSASLGDKVTITCQASQNINNYIAWYQQKPGKAPGLLILYTSTLVSGTPSRFSGSGSGRDYSFSISNVESEDIASYYCLQYDNSPRTFGGGTKLELKRADAAPTVSIFPPSSEQLTSGGASVVCFLNNFYPKDINVKWKIDGSERQNGVLNSWTDQDSKDSTYSMSSTLTLTKDEYERHNSYTCEATHKTSTSPIVKSFNRNEC
4 |  |  | 79 | 96.1 | LoSTIM 4 (bispecific antibody, mouse IgG2a, kappa) heavy: EVQVVETGGGLVQPGSSLKLSCESSGFTFSSTWMNWVRQAPGKGLEWVALVKDKYSNYEANYAESVKGRFIISRDDSKNRVYLQMNTLRDQDTATYHCTRSRGYKNWYFDFWGPGTMVTVSSAKTTAPSVYPLAPVCGDTTGSSVTLGCLVKGYFPEPVTLTWNSGSLSSGVHTFPAVLQSDLYTLSSSVTVTSSTWPSQSITCNVAHPASSTKVDKKIEPRGPTIKPCPPCKCPAPNLEGGPSVFIFPPKIKDVLMISLSPIVTCVVVDVSEDDPDVQISWFVNNVEVHTAQTQTHREDYNSTLRVVSALPIQHQDWMSGKAFACAVNNKDLPAPIERTISKPKGSVRAPQVYVLPPPEEEMTKKQVTLTCMVTDFMPEDIYVEWTNNGKTELNYKNTEPVLDSDGSYFMYSKLRVEKKNWVERNSYSCSVVHEGLHNHHTTKSFSRTPGKGGGGAGGGGDVALTQTPVAQPVTLGDQASISCRSSQSLVHSNGRTYLEWYLQKPGQSPQLLIYKVSNRFSGVPDRFIGSGSGSDFTLTISRVEPEDLGVYYCFQATHDPNTFGAGTKLELKGGGGSGGGGSGGGGSQVQLQQSGAELVKPGSSVKISCKASGYTFTSHFIHWIKQQPGNGLEWIGGIYPGDGDTEYNQQFNGKATLTADKSSSTAYMRLSSLTSEDSAVYFCATRVPSYWFFDFWGPGTMVTVSS light: DIQMTQSPPSLSASLGDKVTITCQASQNINNYIAWYQQKPGKAPGLLILYTSTLVSGTPSRFSGSGSGRDYSFSISNVESEDIASYYCLQYDNSPRTFGGGTKLELKRADAAPTVSIFPPSSEQLTSGGASVVCFLNNFYPKDINVKWKIDGSERQNGVLNSWTDQDSKDSTYSMSSTLTLTKDEYERHNSYTCEATHKTSTSPIVKSFNRNEC
